T1: ΔNp63α (Homo sapiens, UniProt Q9H3D4-2 1-586)
T1 sequence: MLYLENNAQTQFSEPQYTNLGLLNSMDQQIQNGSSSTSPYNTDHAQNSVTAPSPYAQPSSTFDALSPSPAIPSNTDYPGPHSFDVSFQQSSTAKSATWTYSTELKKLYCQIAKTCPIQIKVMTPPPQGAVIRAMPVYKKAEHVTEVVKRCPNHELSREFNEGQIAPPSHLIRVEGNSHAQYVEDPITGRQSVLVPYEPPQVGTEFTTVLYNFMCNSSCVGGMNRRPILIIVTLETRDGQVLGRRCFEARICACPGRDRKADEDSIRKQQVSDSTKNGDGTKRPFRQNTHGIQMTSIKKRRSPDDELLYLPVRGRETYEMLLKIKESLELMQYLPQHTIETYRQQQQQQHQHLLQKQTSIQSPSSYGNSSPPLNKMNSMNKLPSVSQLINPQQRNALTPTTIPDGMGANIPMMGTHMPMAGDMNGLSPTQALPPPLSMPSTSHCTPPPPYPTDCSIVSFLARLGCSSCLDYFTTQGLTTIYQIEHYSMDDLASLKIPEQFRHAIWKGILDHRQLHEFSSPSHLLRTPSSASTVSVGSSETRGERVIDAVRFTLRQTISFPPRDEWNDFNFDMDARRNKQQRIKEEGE

T2: ΔNp73β (Homo sapiens, UniProt O15350-9 1-450)
T2 sequence: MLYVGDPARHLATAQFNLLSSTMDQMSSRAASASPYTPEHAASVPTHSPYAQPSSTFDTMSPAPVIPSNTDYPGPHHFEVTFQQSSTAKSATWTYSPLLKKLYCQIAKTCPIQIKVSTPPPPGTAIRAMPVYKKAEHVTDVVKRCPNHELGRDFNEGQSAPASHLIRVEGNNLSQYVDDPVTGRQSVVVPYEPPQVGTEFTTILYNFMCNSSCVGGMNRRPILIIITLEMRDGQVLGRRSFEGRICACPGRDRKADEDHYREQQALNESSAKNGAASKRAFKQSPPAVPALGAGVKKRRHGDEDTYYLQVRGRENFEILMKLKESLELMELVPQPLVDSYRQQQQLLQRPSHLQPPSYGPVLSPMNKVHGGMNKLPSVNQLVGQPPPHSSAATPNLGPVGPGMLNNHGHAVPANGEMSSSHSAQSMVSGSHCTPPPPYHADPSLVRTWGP

T3: Drp53 (Danio rerio, UniProt P79734 1-373)
T3 sequence: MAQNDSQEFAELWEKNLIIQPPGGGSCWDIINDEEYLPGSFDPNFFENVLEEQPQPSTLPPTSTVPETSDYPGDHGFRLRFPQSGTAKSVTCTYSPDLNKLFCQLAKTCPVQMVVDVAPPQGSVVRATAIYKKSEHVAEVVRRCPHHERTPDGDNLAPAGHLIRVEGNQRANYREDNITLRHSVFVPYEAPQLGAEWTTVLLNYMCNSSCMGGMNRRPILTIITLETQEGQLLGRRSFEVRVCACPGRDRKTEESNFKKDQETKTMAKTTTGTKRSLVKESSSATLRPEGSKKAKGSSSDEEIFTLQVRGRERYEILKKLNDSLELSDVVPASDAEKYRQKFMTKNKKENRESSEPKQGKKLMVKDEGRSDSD

T4: Dmp53 (Drosophila melanogaster, UniProt Q9N6D8 1-385)
T4 sequence: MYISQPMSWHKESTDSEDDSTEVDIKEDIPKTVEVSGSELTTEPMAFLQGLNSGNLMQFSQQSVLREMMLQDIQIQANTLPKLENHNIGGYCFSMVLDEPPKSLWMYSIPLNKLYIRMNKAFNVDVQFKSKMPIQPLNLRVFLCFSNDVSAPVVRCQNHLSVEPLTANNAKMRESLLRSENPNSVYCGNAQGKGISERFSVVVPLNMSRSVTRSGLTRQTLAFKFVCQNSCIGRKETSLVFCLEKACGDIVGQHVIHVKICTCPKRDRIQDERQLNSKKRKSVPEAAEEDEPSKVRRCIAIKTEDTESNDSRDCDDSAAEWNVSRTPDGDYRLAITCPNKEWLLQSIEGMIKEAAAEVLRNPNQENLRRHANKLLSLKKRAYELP

T5: ΔNp63β (Homo sapiens, UniProt Q9H3D4-4 1-461)
T5 sequence: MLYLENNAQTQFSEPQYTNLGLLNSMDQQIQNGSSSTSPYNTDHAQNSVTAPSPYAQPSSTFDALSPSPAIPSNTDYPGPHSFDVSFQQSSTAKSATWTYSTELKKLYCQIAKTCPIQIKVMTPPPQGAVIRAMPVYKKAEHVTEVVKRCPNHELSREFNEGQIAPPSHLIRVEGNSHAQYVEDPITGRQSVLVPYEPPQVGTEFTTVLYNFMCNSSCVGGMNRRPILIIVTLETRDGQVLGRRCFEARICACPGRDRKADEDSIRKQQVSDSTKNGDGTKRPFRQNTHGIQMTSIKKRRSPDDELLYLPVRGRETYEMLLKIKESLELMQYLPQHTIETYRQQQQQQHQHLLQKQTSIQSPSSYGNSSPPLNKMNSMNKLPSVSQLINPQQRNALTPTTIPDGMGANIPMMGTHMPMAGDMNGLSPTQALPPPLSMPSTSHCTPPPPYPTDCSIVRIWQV

T6: ΔNp63γ (Homo sapiens, UniProt Q9H3D4-6 1-393)
T6 sequence: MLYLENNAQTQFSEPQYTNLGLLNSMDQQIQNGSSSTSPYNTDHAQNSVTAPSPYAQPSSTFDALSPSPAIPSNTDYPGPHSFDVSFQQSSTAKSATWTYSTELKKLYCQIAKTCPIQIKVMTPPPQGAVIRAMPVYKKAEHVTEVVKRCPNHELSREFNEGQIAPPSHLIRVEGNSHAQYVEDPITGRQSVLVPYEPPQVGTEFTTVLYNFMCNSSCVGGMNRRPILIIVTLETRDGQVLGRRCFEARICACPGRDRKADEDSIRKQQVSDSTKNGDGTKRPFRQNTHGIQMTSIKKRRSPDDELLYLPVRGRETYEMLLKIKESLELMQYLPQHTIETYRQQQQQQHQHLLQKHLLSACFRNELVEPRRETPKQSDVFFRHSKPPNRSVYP

B1: A5G (dsDNA)
DNA 1: CGCGGACGTGTCCGGACATGTCCCGC
DNA 2: GCGGGACATGTCCGGACACGTCCGCG
B2: G7C (dsDNA)
DNA 1: CGCGGACATCTCCGGACATGTCCCGC
DNA 2: GCGGGACATGTCCGGAGATGTCCGCG
B3: G2C (dsDNA)
DNA 1: CGCGCACATGTCCGGACATGTCCCGC
DNA 2: GCGGGACATGTCCGGACATGTGCGCG
B4: T6C (dsDNA)
DNA 1: CGCGGACACGTCCGGACATGTCCCGC
DNA 2: GCGGGACATGTCCGGACGTGTCCGCG
B5: A5C (dsDNA)
DNA 1: CGCGGACCTGTCCGGACATGTCCCGC
DNA 2: GCGGGACATGTCCGGACAGGTCCGCG
B6: A3C (dsDNA)
DNA 1: CGCGGCCATGTCCGGACATGTCCCGC
DNA 2: GCGGGACATGTCCGGACATGGCCGCG

What follows are binders tested against T7, Xlp53 (Xenopus laevis, UniProt Q7T1D0 1-362) (assay: anisotropy competition; 25 mM NaPi, 225 mM NaCl, 10% v/v glycerol, 5 mM DTT, 0.2 mg/mL BSA, 22°C; 20 nM labelled DNA; pH not stated for the binding assay). Settings: protein: recombinant; tags: N-terminal 6xHis-lipoyl-TEV tag, cleaved; chain copies: 4.
T7 sequence (Q7T1D0 entry or part of it): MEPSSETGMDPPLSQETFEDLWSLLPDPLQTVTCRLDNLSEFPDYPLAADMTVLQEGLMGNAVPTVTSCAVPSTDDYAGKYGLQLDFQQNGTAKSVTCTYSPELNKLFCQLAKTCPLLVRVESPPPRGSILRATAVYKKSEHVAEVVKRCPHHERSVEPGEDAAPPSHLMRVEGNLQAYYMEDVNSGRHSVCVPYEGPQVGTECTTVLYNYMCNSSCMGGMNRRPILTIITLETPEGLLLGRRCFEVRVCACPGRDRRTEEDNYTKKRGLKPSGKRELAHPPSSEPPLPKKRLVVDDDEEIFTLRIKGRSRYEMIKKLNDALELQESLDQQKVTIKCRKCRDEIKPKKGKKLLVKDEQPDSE
B1 was tested, and the Kd was -6.64 log10(M).
For B2, the Kd was -5.7 log10(M).

Target: T7, Xlp53
Experiment: as above
Settings: protein: recombinant; tags: N-terminal 6xHis-lipoyl-TEV tag, cleaved; chain copies: 4
Remark: another data set of the same source
In the case of B3, the binding signal is reported as 0.27 ΔlogKd vs ref.
With B4 the binding signal was 0.7 ΔlogKd vs ref.
With B5 the binding signal was 0.48 ΔlogKd vs ref.
With B6 the binding signal was 0.82 ΔlogKd vs ref.

What follows are binders tested against T1, ΔNp63α in the same assay as above. Settings: protein: recombinant; tags: N-terminal 6xHis-lipoyl-TEV tag, cleaved; chain copies: 4.
In the case of B3, the binding signal is reported as 0.15 ΔlogKd vs ref.
With B4 the binding signal was 0.25 ΔlogKd vs ref.
With B5 the binding signal was 0.3 ΔlogKd vs ref.
With B2 the binding signal was 1.33 ΔlogKd vs ref.

The binders below were run against T2, ΔNp73β in the same assay as above. Settings: protein: recombinant; tags: N-terminal 6xHis-lipoyl-TEV tag, cleaved; chain copies: 4.
With B3 the binding signal was 0.44 ΔlogKd vs ref.
With B4 the binding signal was 0.62 ΔlogKd vs ref.
B5 was tested, and the binding signal was 0.64 ΔlogKd vs ref.
In the case of B2, the binding signal is reported as 1.8 ΔlogKd vs ref.

The binders below were run against Mmp53 (Mus musculus, UniProt P02340 1-390) in the same assay as above. Settings: protein: recombinant; tags: N-terminal 6xHis-lipoyl-TEV tag, cleaved; chain copies: 4.
Chain of Mmp53 (P02340 whole entry): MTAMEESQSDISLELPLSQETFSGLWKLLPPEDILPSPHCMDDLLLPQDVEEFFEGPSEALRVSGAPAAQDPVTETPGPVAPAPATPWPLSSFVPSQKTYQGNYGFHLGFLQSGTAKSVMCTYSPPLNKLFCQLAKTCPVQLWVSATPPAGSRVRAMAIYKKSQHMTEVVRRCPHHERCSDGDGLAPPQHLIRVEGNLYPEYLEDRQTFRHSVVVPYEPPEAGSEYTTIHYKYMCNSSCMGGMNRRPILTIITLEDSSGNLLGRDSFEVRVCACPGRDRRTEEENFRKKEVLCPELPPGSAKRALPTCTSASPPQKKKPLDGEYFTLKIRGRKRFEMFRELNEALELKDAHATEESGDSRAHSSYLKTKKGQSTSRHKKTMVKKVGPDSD
B3 was tested, and the binding signal was 0.28 ΔlogKd vs ref.
In the case of B4, the binding signal is reported as 0.36 ΔlogKd vs ref.
B5 was tested, and the binding signal was 0.4 ΔlogKd vs ref.
In the case of B2, the binding signal is reported as 0.67 ΔlogKd vs ref.
For B6, the binding signal was 0.46 ΔlogKd vs ref.

The binders below were run against T3, Drp53 in the same assay as above. Settings: protein: recombinant; tags: N-terminal 6xHis-lipoyl-TEV tag, cleaved; chain copies: 4.
For B3, the binding signal was 0.41 ΔlogKd vs ref.
In the case of B4, the binding signal is reported as 0.65 ΔlogKd vs ref.
With B5 the binding signal was 0.77 ΔlogKd vs ref.
In the case of B2, the binding signal is reported as 1.3 ΔlogKd vs ref.

Each binder was assayed against T4, Dmp53 in the same assay as above. Settings: protein: recombinant; tags: N-terminal 6xHis-lipoyl-TEV tag, cleaved; chain copies: 4.
With B4 the binding signal was 0.25 ΔlogKd vs ref.
B5 was tested, and the binding signal was 0.54 ΔlogKd vs ref.
With B2 the binding signal was 1.51 ΔlogKd vs ref.
B6 was tested, and the binding signal was 0.75 ΔlogKd vs ref.

The binders below were run against T5, ΔNp63β in the same assay as above. Settings: protein: recombinant; tags: N-terminal 6xHis-lipoyl-TEV tag, cleaved; chain copies: 4.
B3 was tested, and the binding signal was 0.36 ΔlogKd vs ref.
With B4 the binding signal was 0.57 ΔlogKd vs ref.
B5 was tested, and the binding signal was 0.57 ΔlogKd vs ref.
B2 was tested, and the binding signal was 1.45 ΔlogKd vs ref.

These binders were tested against T6, ΔNp63γ in the same assay as above. Settings: protein: recombinant; tags: N-terminal 6xHis-lipoyl-TEV tag, cleaved; chain copies: 4.
B3 was tested, and the binding signal was 0.37 ΔlogKd vs ref.
For B4, the binding signal was 0.52 ΔlogKd vs ref.
In the case of B5, the binding signal is reported as 0.58 ΔlogKd vs ref.
For B2, the binding signal was 1.68 ΔlogKd vs ref.
With B6 the binding signal was 0.93 ΔlogKd vs ref.

These binders were tested against Hsp53 (Homo sapiens, UniProt P04637 1-393) in the same assay as above. Settings: protein: recombinant; tags: N-terminal 6xHis-lipoyl-TEV tag, cleaved; chain copies: 4.
Chain of Hsp53 (P04637 whole entry): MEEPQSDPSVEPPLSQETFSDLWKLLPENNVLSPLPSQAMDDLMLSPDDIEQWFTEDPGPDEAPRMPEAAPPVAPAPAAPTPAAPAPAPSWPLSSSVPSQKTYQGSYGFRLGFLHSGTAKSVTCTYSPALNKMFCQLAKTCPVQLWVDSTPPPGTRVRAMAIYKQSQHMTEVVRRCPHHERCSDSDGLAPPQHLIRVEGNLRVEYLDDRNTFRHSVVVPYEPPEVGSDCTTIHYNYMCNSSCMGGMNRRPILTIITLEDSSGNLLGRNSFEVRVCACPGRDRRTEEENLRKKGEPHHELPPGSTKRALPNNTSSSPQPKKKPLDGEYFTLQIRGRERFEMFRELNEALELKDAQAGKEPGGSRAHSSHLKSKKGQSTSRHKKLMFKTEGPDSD
B3 was tested, and the binding signal was 0.37 ΔlogKd vs ref.
With B4 the binding signal was 0.53 ΔlogKd vs ref.
For B5, the binding signal was 0.45 ΔlogKd vs ref.
In the case of B2, the binding signal is reported as 0.9 ΔlogKd vs ref.
B6 was tested, and the binding signal was 0.66 ΔlogKd vs ref.
